Experimental data: the nanobody polyreactivity screen of Harvey et al. (2022)

Assay: yeast display, Sf9 membrane polyspecificity reagent, FACS + sequencing; frameworks hold sequencing errors
Method in brief: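 Genes from sorted yeast were amplified by colony PCR, read by MiSeq 2 × 250 sequencing and filtered on CDR length. These cells carried a synthetic nanobody library in Saccharomyces cerevisiae BJ5465 and were sorted by FACS into low and high (top ~1%) gates on anti-HA and streptavidin fluorescence. Polyreactivity is labelled according to the gate of origin.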

| Sequence | polyreactivity (PSR sort gate) |
| --- | --- |
| QVQLEESGGRLVQAGGSLRLTSAASGGIFSVYAMGWYRQAPGKERQLVASITVSGGSTSYADSVKGRFTISRDNAKNTVYLQMKSLKPEDTAVYYCAVYQYVGYTMDYWGQGTKVTVSS | low polyreactivity |
| QVQLEESGRGLVQAGGSLRISCAASGRTYTYYALGWYRQAPGKERELVAAISQSGGSTYYADSVKGRFTISRDNAKNTVYLQMNSLKPEDTAVYYCASVWRTRWAPGYYWGQGTQVTVSS | high polyreactivity |
| QVQLEESGVGLVQAGGSLRLSCAASGSIFPAYAMGSYRQAPGKERELLAAITFSGGRTYYADSVKGRLTISRDNAKNTFYLQMNSLKPEDTAVYYCAAYGAPSGTGAKYGYWGQGTQVTVSS | low polyreactivity |
| QVQLEESGVGVVLAGGSRSLSCAASGRIFQYNAMGWNRQAPGKERELVAAISYRGGSTYYADSVKGRFTISRDNAKYTVYLQLNSLKPEDTAVYYCAVEYPVYYYVEYDYWGQGTQVTVSS | high polyreactivity |
| QVQLEESRGGLVQAGGSLRLSCAASGSIFGYNTMGWYRQAPRKERELVAAISKSGGSTYYADSEKGRFTLSRDTEKNTVYLQMNSLKLEDTAVYYCATYAKQLSPYYYWGQGIQVTVSS | high polyreactivity |
| QVQLEESRGGLVQAGGSLRLSCAASGSTFVINDMGWYRQAPGKETELVAAISKSGGRTYYADSVKGRFTISRDNATNTVYLQMNSLKPEDTAVYYCAAVSQRTRYGYWGQGTQVTVSS | high polyreactivity |
| QVQLEESRGGLVQAGGSLRLSSADSGSTFDYYAKGWYRQAPGKERELVAAITSTGRTYYADSVKGRFTISRDNAKNTVYLQMNSLKPEDTAVYYCAADLPWGPLFDYWGQGTQVTVSS | low polyreactivity |
| QVQLEESRRGLVQARGSLRLSCASSGYIFLYYALGCYRQAPGKERELVAAITTRGGRTYYADSVKGRFTISRDNAKNTVYVQMNSLKPEDTAVYYCAVEVSWSYYSYGYWGQGTQVTVSS | low polyreactivity |
| QVQLEESVGGLVQAGGSLRLSCAASGSISYKYLMGWYRQAPGKEREFVASMTRIGGSTYYADSVKGRFTISRDNAKNTVYLQMNSLNAEDTAVYYCAADYAIGRLRRGDDYWGQGTQVTVSS | low polyreactivity |
| QVQLEESVGGLVQAGGSLRLSCAASGSTFVYYGMGWYRQAPGKERELVAAITDIGDSTNYADSVKGRFTISRDNAKNTVYLQMNSLKPDDTAVYYCAASGRSVPYYGSPRNDYWGQGTQVTVSS | low polyreactivity |
| QVQLEESVGGLVQEGGSLRLTCAASGRIFGNTMGWYRQAPWKEMELVAAITRSGVSTYYADSVKGRFTSSRDNAKNTVYLQMNSLKPEDTAVYYCADASSYYRGHYDYWGQGTQVTVSS | high polyreactivity |
| QVQLEETRGCLVQAGGSLRLSCAASGIILYAYAMGWYRQAPRKERELVAAITRRGGRTYYADSVKGRFTISRDNAKYTVYLQMNSLKPVDTAVYYGATVQSGRVRTYDYWGQGTLVTVSS | high polyreactivity |
| QVQLEEYGGGLVQAGGSLRLSCAAAGFTCGGYAMGWYRQAPGKDRELVATITRVGSTNYADSVKGRFTISRDNAKNTVYLQMNSLKPEDTAVYYCNTRRVYGHGNAPYDSWGQATQVTVSS | low polyreactivity |
| QVQLGDSGGGLVQAGGSLRLSCAASGSIFVGYAMGWYRQAPGKERELVAAISWSGDSTYYAVSVKGRFTMSRDNAKNTVYLQMNSLKPEDTAVYYCAVDYAENGPRREVEYDYWGQGTQVTVSS | low polyreactivity |
| QVQLGDSGGGLVQAGGSLRLSCAPSGSIFQRYAMGWYRLAPGKERELVAAISYNGGSTYYADSVKGRFTISRDNAKNTVYLQMNSLKPEDTAVYYCAARGYRKTRFDYWGQGTKVTVSS | high polyreactivity |
| QVQLGESGGGIVQAGGSLRLSCAASGIIFARYAMGWSRQAPGKERELVAAISRRGTSTYYADSVKGRFTISRDNAKNTVYLQMNSLKPEDTALYYCAARQLFYLPGPRVDAWGQGTQVTVSS | high polyreactivity |
| QVQLGESGGGIVQAGGSLRLSCAASGIIFYPYTMGWYRQAPGKERELVAAINSGGSTYYADSVKGRFTISRDNAKNTVYLQMNSLKPEDTAVYYCAAEEALDWYDDWIVSYDYWGQGTQVTVSS | low polyreactivity |
| QVQLGESGGGLFQAGGSLRLSCAASGRTFVTYAMVWYRQAPGKERELVAAISKRGSRTYYADSVKGRFTISRDNAKNTVYLQMNTLKPEDTAVYYCAVVYSIYTRGYDYWGQGTQVTVSS | high polyreactivity |
| QVQLGESGGGLLQAGGSLRLSCAASGRTISKNGMGWYRQAPGKERELVAAISGSGGTTYYADSVKGRFTISRDNAKNTVYLQMNSLKPEDTAVYYSADRYTVSRSGYWGLGTQVTVSS | high polyreactivity |
| QVQLGESGGGLVPARGSLRLSRAASGSTFTTNAMGWYRQAPGKEREFVAAITSSGGSTYYADSVKGRFTISRDNAKNTVYLQMNSLNPEDTAVYYCIADGDPSQKLFGRSYDYWGQGTQVTVSS | low polyreactivity |
| QVQLGESGGGLVQAGGRLRLSCAASGFTFNTYAMGWYRQAPGKVRALVATITSDGSTTYADSVKGRFTISRDNAKNTVNLQMNSLKPEDTAVYYFNARVWVHRYYYYFTHIITYDYWGQGTQVTVSS | low polyreactivity |
| QVQLGESGGGLVQAGGSLRLCCAASGRIFVRYTRGWYRQAPGKERELVAAIDQRGGSTYYADSVKGRFTISRDNANNTVSLQLNSLKPEDTAVYYCARVASRTRPGYGYWGQGTQVTVSS | low polyreactivity |

| Sequence | polyreactivity (PSR sort gate) |
| --- | --- |
| QVQLGESGGGLVQAGGSLRLICAASGSTFWTNDMGWYRQAPGKERELVAPISQSAGDTYYADSVKARFTISRDNSKNTFYLQMISLKPEDTAVYYCAADLVFYPFTWDGYYYWGQGTQVTVSS | low polyreactivity |
| QVQLGESGGGLVQAGGSLRLSCAASARNSSFYEMGWYRQAPGKGSELVAAINWDDGTTYYADSVMGRFTISRDNAQNNVYFQKNSLNPEDTAVYYCAVEGFSSAAYDFEYWGQGSQVTVSS | high polyreactivity |
| QVQLGESGGGLVQAGGSLRLSCAASGFTFDVNAMGWYRQATGKERELFAGITTSDGSTYYADSVKGRFTISRDNAKNTVYLQMNSLQPEDTAVYYCAAAITWYQLYQRSGGDYWGQGTQVTVSS | low polyreactivity |
| QVQLGESGGGLVQAGGSLRLSCAASGFTFQEYAMGWYRQAPGKDRELVAAITSGTTTNYADSVKGRFTISRDNAKNTVYLQMNSLKPEDTAVYYCNVRRQSGRYRVYEYDYWGQGTQVTVSS | low polyreactivity |
| QVQLGESGGGLVQAGGSLRLSCAASGFTFTRYAMGWYRQAPGKERELVAAIRWSGGRTYFADSVKGRFTISRDNAKNTVYLEMNRLKPEDTAVYYCNAVFYDPRREYDYWGQGTQVTVSS | high polyreactivity |
| QVQLGESGGGLVQAGGSLRLSCAASGFTFYRYTLGWYRQEPGKERELVAAITWSGGNTYYADSVKGRFTISRDNAKNTVYLQMNSLKPEDTAFYYCAAYKPYSKYNYWGQGTQVTVSS | high polyreactivity |
| QVQLGESGGGLVQAGGSLRLSCAASGGTFSQYAMGWYRHAPGKERELVARISRRGGSTSYADSVKGRFTISRDNAKNTVYLQMNSLKPEDTAVYYCAKDAPSVYPGRFGNTGGYAYDYWGQGTQVTVSS | high polyreactivity |
| QVQLGESGGGLVQAGGSLRLSCAASGGTFTSYAMGWYRQAPGKERELVAGITSSGGNTYYADSVKGRFTISRDNAKNTVYLQMNSLKPEDTAVYYCAAKSGRGRTMDYWGQGTQVTVSS | high polyreactivity |
| QVQLGESGGGLVQAGGSLRLSCAASGIIFLGYAMGSYRQAPGKERELVAAFYSGVRTYYADSVKGRFTISRDNAKNTVYLQMNSLKPEDTAVYYCNATWTPYSSKQYYYWGLGTQVTVSS | low polyreactivity |
| QVQLGESGGGLVQAGGSLRLSCAASGIIFYEYVMVWYRQAPGKEREFVATISSIGGSTYYADSVKGRFTISRDNAKNTVYLQMNSRKPADTAVYYCAADPDPVVAPGGNWYGDDYWGQGSQVTVSS | high polyreactivity |
| QVQLGESGGGLVQAGGSLRLSCAASGITFERNAMGWYRQAPGKERELVAAWSGGGTYYADSVKGRFTISRDNAKNTVYLQMDSLKPEDTAVYYCAADYRYDLSIGVNYWGQGTQVTVSS | low polyreactivity |
| QVQLGESGGGLVQAGGSLRLSCAASGLTFDPNAMGWYRQAPGKERELVATITQTDGSTYYADSVKGRFTISRDNAKNTVYLQMNSLKPEDTAVYYCAVDVDEPRYRRPFHHDYWGQGTQVTVSS | low polyreactivity |
| QVQLGESGGGLVQAGGSLRLSCAASGLTLYLYTMGWYREAPGKEMELVASIDSGTSTKYADSVKGRFTISRDNAKNTVYLQMNSLKPEDTAVYYCAAGVWVTRYFRYYYWGQGTLVTVSS | low polyreactivity |
| QVQLGESGGGLVQAGGSLRLSCAASGNTFGTYAMGWYRHAPGKERELVAAITWRGGRTTYADSVKGRFTISRDNAKNTVYLQMIRLIPEDTAVYYCAAVIHWWYATYDYWGQGTQVTVSS | high polyreactivity |
| QVQLGESGGGLVQAGGSLRLSCAASGRIFAGYAMGWYRQAPGKERELVATISSGGSTYYADSVKGRFTISRDNAKNTVYLQMHSLKPEDTAVYYCAAEYATRQYSSYYNLFNYCGQGTQVTVSS | low polyreactivity |
| QVQLGESGGGLVQAGGSLRLSCAASGRIFAWNAMGWYRQAPGKERELVAAITYNGGSTYYADSVKGRFTISRDNAKNTVYLQMNSLKPEDTAVYYCNKVTRSPAQGYGYWGQGTQVTVSS | high polyreactivity |
| QVQLGESGGGLVQAGGSLRLSCAASGRIFQIYGMGWYRQAPGKERELVASISSGDSTNFADSVKGRFTISRDNAKNTVYLQMNSLIPEDTAVYYCAARSRRAYNYWGQGTQVTVSS | high polyreactivity |
| QVQLGESGGGLVQAGGSLRLSCAASGRIFYLNVMGWYRQAPGKERELVAAITRRDVTTYADSVKGRFTISRDNAKNTVYLQMNSLKPEDTAVYYCNAVYYNWIGFDYWGQGTQVTVSS | low polyreactivity |
| QVQLGESGGGLVQAGGSLRLSCAASGRIYAAYAMGWSRQAPGKERELVAAISGSGGSTSYADSVKGRFTISRDNAKNTVYLQMNSLKPEYTAVYYCAADYSYLAEFDYWGQGTQVTVSS | low polyreactivity |
| QVQLGESGGGLVQAGGSLRLSCAASGRNFENNAMGWYRQAPGKERELVASIRGGGSTNYADSVKGRFTISRDNAKNTVYVQMNSLKPEDTAVYYCNADYWWSYVRFDYWGQGTQVTVSS | low polyreactivity |
| QVQLGESGGGLVQAGGSLRLSCAASGRTFDYYAMGWYRQAPGKEWQLVAAISGSGGTTYYADSVKGRFTISRENAKNTVYLQMNSLKAEDTAVYNCDTVRSRLFGQYYYWGQCTQVTVSS | high polyreactivity |
